Laboratory results taken from publication PMC10823590.

Target: ST2 receptor (isolated protein used in ELISA and in the fluorescence emission assay) (UniProt Q01638)
Test: fluorescence emission before and after incubation with the receptor; IL-33 analogues at 50 ug/mL, fluorescence emission measured before and after incubation with ST2 at 200 ug/mL, n = 3

fold increase of fluorescence emission upon receptor binding: 4 fold
Substance: IL-33(6) (from UniProt O95760 1-270) (ligand)
